“Also recorded” adds a separate entry of the source.
How the values were obtained:
[1] = system: adult females of M. incognita; test: Light microscopy of Meloidogyne adult female worms incubated with papain; assay type: cell-based; set-up: digestion of the cuticle of adult females: dose or concentration left out as unconfirmed
Method: To assess whether these enzymes also affected the cuticles of other stages of the nematodes, five adult females of M. […], prepared in 16 mM L-cysteine dissolved in phosphate buffered saline (PBS), pH 7.4, or PBS, pH 7.4 with and without 16 mM L-cysteine. These nematodes were incubated in the dark at ambient temperature for 4 h and were then examined using a light microscope at ×10 and ×20 magnification to observe any differences to the nematode body wall.

M. incognita J2 = test: In vitro live/dead count of M. incognita J2 in solution without soil (Example 2); assay type: cell-based; conditions: after 40 hs of observation, at the nematicidal concentration
Method: Eggs of M. incognita race 1 from North Carolina State University, USA were collected from tomato-infected roots grown in a glasshouse at 23° C. in a 16:8 h light-dark regime. Eggs were extracted using 1% hypochlorite (NaClO) solution (Hussey and Barker, 1973) or by picking egg masses from tomato-infected roots. Juveniles (J2) were hatched from the eggs and egg masses in water. Heterodera glycines eggs were obtained from soil samples stored in Rothamsted-Research. Second stage juveniles (J2) were hatched from the eggs in water after 10 days. Pratylenchus penetrans were a gift from Dr. Deeren Anne-Marie from the Institute for Agricultural and Fisheries Research, Merelbeke, Belgium. The beneficial nematodes Steinernema feltiae and Heterorhabditis megidis were a gift from Dr. Paul Williams from Becker Underwood. […]
Control wells were set up which contained J2s and distilled water with 16 mM L-cysteine. […] The actual number of active J2s per well was counted with the aid of an Olympus inverted microscope, prior to the addition of the enzymes, and then the J2s were incubated in the dark at room temperature for 2 hs, 16 hs, 24 hs or 40 hr. The number of live and dead J2s per well was counted after each enzyme incubation. […]

Meloidogyne spp. J2s = test: In vitro mobility of Meloidogyne spp. J2s exposed to plant cysteine proteinases; assay type: cell-based, M. incognita or M. javanica
Method: Eggs of M. incognita race 1 from North Carolina State University, USA, and M. javanica from Portugal were collected from the roots of infected tomato plants grown in a glasshouse at 23° C. in a 16:8 h light-dark regime. Eggs were extracted using 1% hypochlorite (NaClO) solution (Hussey and Barker, 1973) or by picking egg masses from the infected roots. M. incognita and M. javanica were both used in the experiments and produced similar results. Juveniles (J2) were hatched from the eggs and egg masses in water. Globodera rostochiensis cysts were washed extensively in distilled water. Hatched J2s were obtained by incubating cysts in distilled water for 4 days followed by exposure to potato root diffusate (PRD).
Approximately 1000 J2s (second juvenile stage) of M. incognita or M. javanica were incubated per well of a 48-well plate with the following active enzyme concentrations (determined by E-64 titration) of papain dissolved in distilled water containing 16 mM L-cysteine (to activate the cysteine proteinase): 1.5 μM, 3 μM, 6.25 μM, 12.5 μM, 25 μM, 50 μM, 75 μM and 100 μM. Control wells contained J2s and distilled water with and without 16 mM L-cysteine, or J2s and 1 mM E-64, with and without 50 μM (active enzyme) papain, which had been preincubated for 25 mins at 40° C. Each enzyme concentration and the controls were set up in duplicate (n=2) or triplicate (n=3). The number of active J2s per well was counted prior to the addition of papain, and then the J2s were incubated in the dark at room temperature for 3 h. The number of mobile J2s per well was counted after 60, 120 and 180 mins. The nematode surfaces were examined for signs of damage using a light microscope (Zeiss Axioskop) at ×20, ×40 and ×100 magnification and photographs were taken with a Xillix Microimager. The same procedure was followed when setting up further experiments to compare the effects of 25 μM papain, 25 μM crude papaya latex (0.625 g/ml), 25 μM stem bromelain (0.18 g/ml) and 25 μM actinidin (active enzyme concentrations) with M. incognita, M. javanica or G. rostochiensis.
The data from the in vitro motility experiments were analysed using a repeated measures analysis of variance (as implemented in the GenStat procedure AREPMEASUREMENTS) to compare the overall treatment means, the overall means at each sample time, and the treatment by time interaction. Numbers of nematodes moving at each of the repeated sampling times, 60, 120 and 180 mins, were expressed as a proportion of those moving initially at time 0 (i.e. this latter number was assumed to be the actual number of nematodes initially in the dish). The proportions were transformed to logits prior to analysis. […]

Heterodera glycines J2 = test: In vitro live/dead count of Heterodera glycines J2; assay type: cell-based; conditions: 250 μM active papain
Method: Eggs of M. incognita race 1 from North Carolina State University, USA were collected from tomato-infected roots grown in a glasshouse at 23° C. in a 16:8 h light-dark regime. Eggs were extracted using 1% hypochlorite (NaClO) solution (Hussey and Barker, 1973) or by picking egg masses from tomato-infected roots. Juveniles (J2) were hatched from the eggs and egg masses in water. Heterodera glycines eggs were obtained from soil samples stored in Rothamsted-Research. Second stage juveniles (J2) were hatched from the eggs in water after 10 days. Pratylenchus penetrans were a gift from Dr. Deeren Anne-Marie from the Institute for Agricultural and Fisheries Research, Merelbeke, Belgium. The beneficial nematodes Steinernema feltiae and Heterorhabditis megidis were a gift from Dr. Paul Williams from Becker Underwood.
Control wells were set up which contained J2s and distilled water with 16 mM L-cysteine. Each enzyme concentration and the controls were set up in duplicate (i.e. n=2). […] The number of live and dead J2s per well was counted after each enzyme incubation. The same procedure was followed when setting up further experiments to compare the effects of these enzymes with Heterodera glycines J2, Pratylenchus penetrans, Steinernema feltiae and Heterorhabditis megidis.

B1: papain (protein, UniProt P00784 134-345, looked up)
Papain: IPEYVDWRQKGAVTPVKNQGSCGSCWAFSAVVTIEGIIKIRTGNLNEYSEQELLDCDRRSYGCNGGYPWSALQLVAQYGIHYRNTYPYEGVQRYCRSREKGPYAAKTDGVRQVQPYNEGALLYSIANQPVSVVLEAAGKDFQLYRGGIFVGPCGNKVDHAVAAVGYGPNYILIKNSWGTGWGENGYIRIKRGTGNSYGVCGLYTSSFYPVKN
notes: cysteine proteinase from Carica papaya, Merops C01.001, Sigma P3125
digestion of the cuticle of adult females (light micrographs) ([1]; 25 μM active papain, 4 h): Digestion of the cuticle was evident
digestion of the cuticle of adult females ([1]; active papain): digestion of the cuticle was evident
recovery of movement (M. incognita J2): not able to recover movement
proportion of active Meloidogyne spp. J2s relative to control (Meloidogyne spp. J2s; 25 μM active enzyme): Reductions in the proportion of active worms were evident
nematodes mobile after 180 mins (Meloidogyne spp. J2s; 50 μM active papain, with or without pre-incubation with 1 mM E-64): None
mobility (proportion of mobile J2s) of Meloidogyne spp. J2s (Meloidogyne spp. J2s; papain 1.5-100 μM active enzyme, all doses combined, 60-180 mins, vs combined controls): decreased the mobility; also recorded: decreased linearly
activity of Meloidogyne J2s relative to combined controls (Meloidogyne spp. J2s; papain at active enzyme concentrations of 1.5 μM and 3 μM): caused reductions in the activity
state of the nematodes after incubation (Heterodera glycines J2; 16 hs): dead
recovery (Heterodera glycines J2; after 48 hs): no recovery

— patent publication US20110239327A1, “Nematicidal Effects of Cysteine Proteinases and Methods of Use Thereof to Treat Nematode Infestation” (priority 2007, published 2011)
